We go through two molecules from paper PMC8630071, “The NUCKS1-SKP2-p21/p27 axis controls S phase entry”.

Substitutions are numbered along the chain they refer to.

Data set [1] has as its target T1, NUCKS1, dephosphorylated (UniProt Q9H1E3 1-243).
T1 sequence: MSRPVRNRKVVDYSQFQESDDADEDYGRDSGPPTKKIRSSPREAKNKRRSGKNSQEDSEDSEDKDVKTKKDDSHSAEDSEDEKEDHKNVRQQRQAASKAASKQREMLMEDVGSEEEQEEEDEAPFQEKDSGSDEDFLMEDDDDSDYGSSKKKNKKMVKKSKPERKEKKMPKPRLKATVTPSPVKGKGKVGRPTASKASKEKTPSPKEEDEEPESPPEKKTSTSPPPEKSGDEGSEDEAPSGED
As to the kind of experiment: EMSA; lambda phosphatase treated; 10.24-2500 nM protein, 25 nM probe; text: almost 10-fold; 20 mM Tris-HCl pH 7.5, 100 mM KCl, 0.2% NP-40, 20% glycerol, 2 mM DTT, 50 ng (pure protein) or 1 ug (extract) salmon sperm DNA, 25 nM probe, 15 min at 37 C; native 6% PAGE. Particulars: protein: recombinant; tags: His6; label: IRDye-800; blunt. In general terms: Mobility shift assays separate free from complexed probe on a gel.

For data set [2], the target named is T1, NUCKS1, dephosphorylated. Description: competition EMSA; 100x unlabelled competitor against labelled WT probe; not outcompeted; 20 mM Tris-HCl pH 7.5, 100 mM KCl, 0.2% NP-40, 20% glycerol, 2 mM DTT, 50 ng (pure protein) or 1 ug (extract) salmon sperm DNA, 25 nM probe, 15 min at 37 C; native 6% PAGE. Particulars: protein: recombinant; tags: His6; blunt.

B1: SKP2 promoter WT probe (dsDNA)
DNA 1: GCCGACCAGTCCCGCTCCCGCGGGGGGTTGTGGGTATCTCGAAGGCGGGTAAAGCTGCA
DNA 2: TGCAGCTTTACCCGCCTTCGAGATACCCACAACCCCCCGCGGGAGCGGGACTGGTCGGC
For the molecule B1, the binding signal in the data set with NUCKS1, dephosphorylated [1] was ~10 fold higher affinity than phosphorylated NUCKS1.

B2: SKP2 promoter mutant probe (no GC-box), unlabelled competitor (dsDNA)
DNA 1: B1 DNA 1 with G44A, G45A, C46A, G47A, G48A, G49A
DNA 2: B1 DNA 2 with C11T, C12T, C13T, G14T, C15T, C16T
With B2, the binding result with NUCKS1, dephosphorylated [2] is “no binding”.
